Values of other authors, collected in paper PMC7072806.
Where two headings read alike, the source gives them in different places.

Columns and labels:
CCR5 (Homo sapiens) [1] = molecular target: CCR5 (Homo sapiens) (UniProt P51681)
CCR5 (Homo sapiens) [2] = molecular target: CCR5 (Homo sapiens) (UniProt P51681); assay: SPR

Sequence of UniProt P51681 (P51681 whole entry): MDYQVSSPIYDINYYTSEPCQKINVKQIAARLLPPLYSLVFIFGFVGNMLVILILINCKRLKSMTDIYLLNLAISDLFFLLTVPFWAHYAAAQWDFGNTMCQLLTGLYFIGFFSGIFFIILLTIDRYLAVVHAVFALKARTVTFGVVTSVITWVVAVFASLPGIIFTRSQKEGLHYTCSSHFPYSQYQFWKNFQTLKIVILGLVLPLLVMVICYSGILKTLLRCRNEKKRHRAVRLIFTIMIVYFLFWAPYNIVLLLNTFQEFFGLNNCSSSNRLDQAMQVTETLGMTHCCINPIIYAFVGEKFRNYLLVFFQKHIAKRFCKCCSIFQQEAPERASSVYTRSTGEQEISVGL

| Kd (CCR5 (Homo sapiens) [1]) [nM] | Kd (CCR5 (Homo sapiens) [2]) [nM] | Substance |
| --- | --- | --- |
| 0.4 |  | RANTES (from UniProt P13501) |
|  | 5000 | eNAMPT (from UniProt P43490) |
